# Data taken from PMC3399532 (Prion, 2012).
# Target: truncated MoPrP(89–230) (mouse, UniProt P04925 89-230)
# Experiment: ELISA
binder,measurement,value
mouse (Mo) Dpl (26–155) (domain or fragment) ARGIKHRFKWNRKVLPSSGGQITEARVAENRPGAFIKQGRKLDIDFGAEGNRYYAANYWQFPDGIYYEGCSEANVTKEMLVTSCVNATQAANQAEFSREKQDSKLHQRVLWRLIKEICSAKHCDFWLERG,binding result,binds
